Experimental findings from patent publication US20020102568, “Nucleic acid sensor molecules” (published 2002) are described below.

The series concerns the target ERK2 (unactivated, unphosphorylated) (UniProt P28482 P28482:2-360). Kind of series: cleavage_in_vitro; half-maximal allozyme activation; about 100-fold activation by ERK2; 100 mM KCl, 1 mM MgCl2, 10 mM Tris 7.5, 34 C; text cites SEQ 39, listing gives Erk sensor molecule as SEQ 42. The method, then: To examine the dependence of activation on the concentration of ERK2, various amounts of ERK2 were added to different reactions (FIG. 31b). One half-maximal nucleic acid sensor molecule activation is promoted by ˜800 pg/μl ERK2.

ERK2 (unactivated, unphosphorylated), sequence (P28482 2-360, one chain of several): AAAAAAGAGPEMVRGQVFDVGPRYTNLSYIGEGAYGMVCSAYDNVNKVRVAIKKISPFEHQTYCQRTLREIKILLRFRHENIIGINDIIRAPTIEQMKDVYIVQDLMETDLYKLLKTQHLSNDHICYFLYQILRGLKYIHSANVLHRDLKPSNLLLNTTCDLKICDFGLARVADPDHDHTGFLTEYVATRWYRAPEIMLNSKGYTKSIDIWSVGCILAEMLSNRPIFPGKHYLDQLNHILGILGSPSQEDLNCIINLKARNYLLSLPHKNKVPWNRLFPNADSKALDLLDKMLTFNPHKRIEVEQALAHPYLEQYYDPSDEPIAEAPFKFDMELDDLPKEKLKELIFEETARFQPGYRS

B1: ERK2-responsive hammerhead allozyme (ssRNA)
RNA: GCGUGACCUGAUGAGUCACGCUAAGGAGGAUUUCCGAAAGCGGCUACGGUCCGCCAGUGUUACGAAACGUUCCC
For orientation: EC50 means the concentration needed to bring the measured effect to its halfway point. Low values mean higher potency in that assay, high ones lower potency in that assay. Consider B1, for which the EC50 is roughly 0.8 µg/mL.
